Measurements from the Human Domainome abundance scans (Beltran et al. 2025).

B1: Ankyrin-1, residues 1405 to 1484; numbered along this chain, P16157 (parent)
chain: MKMAVISEHLGLSWAELARELQFSVEDINRIRVENPNSLLEQSVALLNLWVIREGQNANMENLYTALQSIDRGEIVNMLE

Variants of: B1
Experiment: abundance fitness (aPCA) (normalised: wild type 0, dead -1); higher = more abundant; growth selection in yeast, the domain comes from the species named
Details: Homo sapiens

Abundance fitness: each site, then its substitutions
D71: P -0.437, M -0.127, K -0.058, F -0.627, W -0.827, L -0.811, R 0.008, E 0.075, N 0.006, A -0.229, C -0.144, T -0.385, Q -0.274, V -0.83, H -0.192, S -0.213
E80: I -0.682, Y -0.048, A -0.083, F -0.023, R -0.17, C -0.092, P 0.049, G 0.126, H -0.06, S -0.056, L -0.329, N -0.045, V -0.154, D 0.164
N77: M -0.152, H -0.175, K 0.03, V -0.078, D -0.347, R 0.08, P -0.283, W 0.018, T 0.041, Y -0.215, C -0.479, S -0.005, Q 0.148, L -0.043, A 0.084, E -0.111
G73: E -0.24, Y -0.339, K -0.289, M -0.396, F -0.284, N -0.33, A -0.17, I -0.486, L -0.399, D -0.491, P -0.205, V -0.172, R -0.297, S -0.192, Q -0.141, C -0.272, T -0.306, W -0.29
R72: I -0.753, D -0.683, A -0.632, S -0.57, H -0.15, M -0.356, L -0.581, T -0.797, C -0.146, G -0.499, Q -0.275, E -0.647, P -0.226
E74: K -0.471, D 0.16, R -0.65, F -0.741, Q -0.45, I -0.105, H -0.082, P -0.264, N -0.478, C -0.469, L -0.562, V -0.839, A -0.364
V76: L -0.054, K -0.283, T -0.244, C -0.051, H -0.465, G -0.566, Y -0.264, A -0.423, F -0.528, Q -0.505, W -0.388, P -0.234, E -0.358, M -0.307, I 0.079
L67: V -0.771, S -0.829, Q -0.809, R -0.803, I -0.156, T -0.965, G -0.852, H -0.911, M -0.092, P -0.858, W -0.999
L79: K -0.429, C 0.045, E -0.335, F -0.331, G -0.379, Y -0.319, T -0.202, D -0.54, M 0.039, H -0.199, V 0.132, R -0.528, S 0.014, P -0.3, I -0.019, Q -0.115, A 0.002
Q68: S -0.199, R -0.038, D -0.109, P -0.767, V -0.08, K 0.169, Y -0.202, M -0.181, C -0.235, F -0.178, G -0.152, E -0.102, T -0.256, A -0.012, W -0.146, I -0.097, N 0.003, H -0.029
S69: H 0.342, L -0.161, I -0.047, R -0.006, C 0.056, Q -0.137, N -0.106, W -0.291, K -0.035, F -0.341, E -0.042, M -0.133, A -0.045, D -0.06, V 0.029, P -0.467
